{"source": "patent US20260265354A1", "about": "(JIANGSU MABWELL HEALTH PHARMACEUTICAL R AND D, published 2026)", "binders": {"B1": {"name": "Antibody R012 (antibody, V domains shown)", "VH": "SKSVEESGGRLVTPGTPLTLTCTVSGFSLSTYAMSWVRQAPGKGLEYIGIISGRGTTYYASWLKGRFTISKTSTTVDLKITSPTTEDTATYFCARDAGISDVYTGYFNLWGQGTLVTVSS", "VL": "QPVLAQLPSASAALGASAKLTCTLSSAHRTYTIAWYQQQQGEAPRYLMMLKSDGSYTKGTGVPDRFSGSSSGADRYLIISSVQAADEADYYCGADDSGGYVFGGGTQLTVTG", "notes": "Rabbit monoclonal antibody from phage display; also called Nectin-4 rabbit monoclonal antibody R012; rabbit antibody R012"}, "B2": {"name": "Antibody R036 (antibody, V domains shown)", "VH": "SQSVEESGGRLVTPGTPLTLTCTVSGFSLSSYAMSWVRQAPGKGLEYIGIIGGRGTTYYAIWAKGRFTISKTSTTVDLKITSPTTEDTATYFCARDAGTTYVGTTYVATGYFNLWGQGTLVTVSS", "VL": "B1 VL with A5T, L7P, R29K, M49I, K58R, A85D", "notes": "Rabbit monoclonal antibody from phage display; also called Nectin-4 rabbit monoclonal antibody R036; rabbit antibody R036"}, "B3": {"name": "Antibody MM11 (antibody, mouse IgG1, kappa, V domains shown)", "VH": "DVQLQESGPGLVKPSQSLSLTCSVTGYSITSNFYWNWIRQFPGNRLEWMGYISYDGSNNYNPSLKNRISISRDTSKNQFFLKLNSVTTEDTATYYCVRADYWGQGTLVTVSA", "VL": "DTVMTQTPLSLPVSLGDQASISCRSSQSLESSDGHAYLNWYLQKPGQSPQLLIYRVSNRFSGVLHRFSGSGSGTDFTLKISRVEAEDLGVYFCLQFTHVPFTFGSGTKLEIKR", "notes": "Mouse monoclonal antibody from hybridoma; also called Nectin-4 mouse monoclonal antibody MM11; mouse antibody MM11"}}, "note": "Where a chain is given by its changes, count along the chain named.", "data": [{"target": "T1, Nectin-like-3 (UniProt Q8N3J6 25-367, limits assumed)", "T1 construct": "Bought recombinant protein; also called CADM2; IgSF4D", "T1 sequence (looked up)": "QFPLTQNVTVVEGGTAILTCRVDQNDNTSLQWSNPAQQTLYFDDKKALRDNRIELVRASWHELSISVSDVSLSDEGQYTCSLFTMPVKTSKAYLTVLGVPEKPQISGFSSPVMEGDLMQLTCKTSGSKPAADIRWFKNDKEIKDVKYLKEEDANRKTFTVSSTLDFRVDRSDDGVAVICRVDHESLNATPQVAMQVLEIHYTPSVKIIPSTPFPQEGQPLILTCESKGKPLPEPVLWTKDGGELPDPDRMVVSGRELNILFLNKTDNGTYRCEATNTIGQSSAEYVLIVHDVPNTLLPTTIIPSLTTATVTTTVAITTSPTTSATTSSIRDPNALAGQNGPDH", "experiment": "ELISA, coated antigen, antibody at 1000 ng/ml", "experimental": "(§1) Coating: Nectin-1, Nectin-2, Nectin-3, Nectin-4, Nectin-like-1, Nectin-like-2, Nectin-like-3, Nectin-like-4, and Nectin-like-5 were diluted to 5 μg/ml in coating buffer (carbonate buffer, pH 9.6) respectively. A 96-well plate was coat with 100 μl per well and incubated overnight at 2-8° C.;\n(§2) Sample loading: The plate was taken out, patted dry, and washed twice with 200 μl/well of PBST, then patted dry. The Nectin-4 antibodies prepared in Example 1 (antibody MM11, antibody R012, and antibody R036) were diluted with 1% BSA/PBST to concentrations of 10 μg/ml, 1 μg/ml, 100 ng/ml, and 10 ng/ml, respectively. 1% BSA/PBST solution for dilution was set as a blank control. 100 μl per well was added to the 96-well plate, and incubated at room temperature for 2 hours;\n(§3) Reaction termination and plate reading: 100 μl/well of 1 mol/L H3PO4 was added to terminate the reaction and the plated was read. The absorbances of wells in the plate at 450 nm with 650 nm as reference wavelength were read and recorded as OD_{450 nm-650 nm}.", "units": {"OD detection value": "OD450 nm-650 nm"}, "values": [{"binder": "B1", "OD detection value": 0.008}, {"binder": "B2", "OD detection value": 0.007}, {"binder": "B3", "OD detection value": 0.029}]}, {"target": "T2, Nectin-like-5 (UniProt P15151 21-343)", "T2 construct": "Bought recombinant protein; also called CD155; PVR", "T2 sequence (looked up)": "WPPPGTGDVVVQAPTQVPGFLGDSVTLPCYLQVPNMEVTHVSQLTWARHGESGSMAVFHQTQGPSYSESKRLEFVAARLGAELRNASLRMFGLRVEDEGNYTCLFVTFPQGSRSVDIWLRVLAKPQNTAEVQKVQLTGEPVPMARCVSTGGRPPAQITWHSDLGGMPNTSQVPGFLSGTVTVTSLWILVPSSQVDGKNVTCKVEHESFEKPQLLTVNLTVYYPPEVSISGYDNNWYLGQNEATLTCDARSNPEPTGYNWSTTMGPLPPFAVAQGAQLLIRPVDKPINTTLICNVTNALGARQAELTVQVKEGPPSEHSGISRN", "experiment": "ELISA, coated antigen, antibody at 1000 ng/ml", "experimental": "as §1, §2, §3", "units": {"OD detection value": "OD450 nm-650 nm"}, "values": [{"binder": "B1", "OD detection value": 0.008}, {"binder": "B2", "OD detection value": 0.009}, {"binder": "B3", "OD detection value": 0.008}]}, {"target": "T3, Nectin-3 (UniProt Q9NQS3 58-404, limits assumed)", "T3 construct": "Bought recombinant protein; also called CD113; PVRL-3", "T3 sequence (Q9NQS3 58-404 limits assumed)": "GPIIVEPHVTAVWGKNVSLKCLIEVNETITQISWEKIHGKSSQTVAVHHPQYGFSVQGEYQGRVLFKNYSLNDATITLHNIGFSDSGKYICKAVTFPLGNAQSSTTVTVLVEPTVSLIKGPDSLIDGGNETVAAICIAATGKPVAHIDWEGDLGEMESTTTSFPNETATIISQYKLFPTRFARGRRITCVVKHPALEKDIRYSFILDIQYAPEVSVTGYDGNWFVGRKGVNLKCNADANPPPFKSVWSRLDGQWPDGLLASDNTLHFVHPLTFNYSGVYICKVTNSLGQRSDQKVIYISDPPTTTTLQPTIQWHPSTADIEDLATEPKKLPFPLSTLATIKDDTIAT", "experiment": "ELISA, coated antigen, antibody at 1000 ng/ml", "experimental": "as §1, §2, §3", "units": {"OD detection value": "OD450 nm-650 nm"}, "values": [{"binder": "B1", "OD detection value": 0.007}, {"binder": "B2", "OD detection value": 0.007}, {"binder": "B3", "OD detection value": 0.008}]}]}
